This is an account of results in article PMC11626150 (Proceedings of the National Academy of Sciences of the …, 2024).

Where a chain is given by its changes, count along the chain named. Numbers in names are those of the source.

What all share (test): ELISA
(In general: In an ELISA, binding on a coated surface is turned into a signal by an enzyme label.)

Assay [1] has as its target Other eight antigen mutants (E2 mutants preincubated with 8C11).
In a further assay the target is HEV genotype 4 E2(IV) (Hepatitis E virus genotype 4, swine …, UniProt D3VV84, strain).
Assay [2] has as its target T1, HEV genotype 1 E2(I) dimer protein (hepatitis E virus genotype 1 (human HEV), UniProt P29326).
For assay [3], the target named is T1, HEV genotype 1 E2(I) dimer protein. This is another data set of the same source.

B1: neutralizing monoclonal antibody 8H3 (antibody, V domains shown)
VH: QVQLKESGPGLVAPSQSLSITCTVSGFSLIGYGVNWVRQPPEKGLEWLGMIWGDGSTDYNSALKSRLSITKDNSKSQVFLKMNSLQTDDTARYYCAMGVRPDPFDYWGQGTLVTVSA
VL: NIMMTQSPSSLAVSAGEKVTMSCKSSQSVLYSSNQKNYLAWYQQKPGQSPKLLIYWASARESGVPDRFTGSGSGTDFTLTINSVQTEDLAVYYCHQYLSSYTFGGGTKLEIK
Consider B1, for which, in assay [1], the fold increase in synergy (8H3 binding with 8C11 pre-bound) came out at 10 fold. Besides, the binding result with HEV genotype 4 E2(IV) was “binds”. Moreover, in assay [2], the ET50 is 4660 dilution fold and the “ET50 (after a non-related mAb, anti-HPV mAb A12A3)” value amounted to 3030 dilution fold.

B2: neutralizing monoclonal antibody 8C11 (antibody, V domains shown)
VH: QVTLKESGPGILQPSQTLSLTCSFSGFSLSTSGMGVGWIRQPSGKGLEWLAHIWWDDVKRYSPALKSRLTISKDTSSSQLFLKIASVDTADTATYYCARIKSVITTGDYALDYWGQGTSVAVSS
VL: DIQMTQSPASLSVSVGETVTITCRASEIIYSNLAWYQQKQGKSPQLLVYSATNLAEGVPSRFSGSGSGTQYSLKINSLQSEDFGSYYCQHFWGNPWTFGGGTKLEIK
B2: the binding result in the assay with HEV genotype 4 E2(IV) is recorded as “binds”. Further, in assay [2], the ET50 worked out at 172000 dilution fold and the “ET50 (after a non-related mAb)” value stood at 188000 dilution fold.

B3: 8C11 mAb mutant D88A (heavy chain) (antibody, V domains shown)
VH: B2 VH with D88A
VL: B2 VL
Turning to B3, the binding result in assay [3] is recorded as “binds”.

B4: 8C11 mAb mutant K66A (heavy chain) (antibody, V domains shown)
VH: B2 VH with K66A
VL: B2 VL
As for B4, the binding result in assay [3] is given as “binds”.

B5: 8C11 mAb mutant S67A (heavy chain) (antibody, V domains shown)
VH: B2 VH with S67A
VL: B2 VL
As for B5, the binding result in assay [3] is “binds”.
